In patent US5286847A, “Interleukin-1 muteins, their preparation and method of use to inhibit interleukin-1 activity” (New England Medical Center Hospitals, Inc., priority 1992, dated 1994):

Key:
[1] = biological target: T1, IL-1 receptor on EL.4 cells (Mus musculus, UniProt P13504); experiment: Equilibrium receptor binding of [35S]-labeled IL-1β peptides to EL.4 cells, Scatchard plot analysis; parameters: species or system murine; conditions: for receptor affinity compared with wild-type IL-1β (in words): equilibrium binding analyses and competitive binding studies
T1 construct: incubated with EL.4 cells; endogenous in cells; host or cells: EL.4 (murine thymoma)
T1 sequence (P13504 20-576): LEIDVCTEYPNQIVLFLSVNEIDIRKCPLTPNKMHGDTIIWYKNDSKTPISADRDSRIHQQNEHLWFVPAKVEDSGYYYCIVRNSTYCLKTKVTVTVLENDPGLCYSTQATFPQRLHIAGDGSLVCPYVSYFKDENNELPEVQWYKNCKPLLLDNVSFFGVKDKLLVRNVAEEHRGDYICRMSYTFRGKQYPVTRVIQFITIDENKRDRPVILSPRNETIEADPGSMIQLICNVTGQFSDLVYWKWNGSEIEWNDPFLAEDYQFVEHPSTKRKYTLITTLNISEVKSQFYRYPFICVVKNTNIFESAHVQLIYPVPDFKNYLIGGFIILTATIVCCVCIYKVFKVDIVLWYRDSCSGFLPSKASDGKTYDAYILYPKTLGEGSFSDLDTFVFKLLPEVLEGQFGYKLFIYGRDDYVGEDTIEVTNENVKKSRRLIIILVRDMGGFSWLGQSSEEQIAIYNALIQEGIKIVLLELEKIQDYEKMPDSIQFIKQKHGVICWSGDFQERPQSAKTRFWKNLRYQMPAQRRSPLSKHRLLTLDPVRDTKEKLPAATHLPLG
Method: The conversion of IL-1 molecules by mutation of specific residues gives muteins having utility as IL-1 biological activity inhibitors. Specifically disclosed is the preparation and testing of human IL-1β.
The receptor binding characteristics of the Arg127 →Gly127mutant protein were determined by Scatchard analysis and by sodium dodecyl sulfate (SDS) polyacrylamide gel analysis of specifically bound proteins (Dower et al., 1986; Jobling et al., 1988; Mosley et al., J. Biol. Chem. 1987). For the polyacrylamide gel analysis, IL-1β proteins were labeled with [^35 S]methionine during in vitro translation before cell surface receptor binding assays using EL4 6.1 C10 murine thymoma cells (Jobling et al., 1988; Mosley et al., Proc. Natl. Acad. Sci. USA, 1987; MacDonald, H. R., R. K. Lees, C. Bron [1985] J. Immunol. 135:3944) (FIG. 3). […] Equilibrium binding experiments and Scatchard plot data (Table 1) confirmed the equivalence of binding constants.

[2] = biological target: T2, EL4 cell receptors (IL-1 receptor) (Mus musculus, UniProt P13504); experiment: Competitive receptor binding against [35S]-labeled mature IL-1β on EL.4 thymoma cells; parameters: species or system murine; conditions: 37° C., concentrations up to a five-fold molar excess, FIG. 4
T2 construct: incubating EL.4 thymoma cells; endogenous in cells; host or cells: EL.4 thymoma cells
T2 sequence (P13504 20-576): T1 sequence (P13504 20-576)
Method: FIG. 4. Competitive receptor binding. A constant amount of radioactive mature IL-1β protein was added to 1.9×10^7 EL.4 cells in binding medium. The results are presented as a percentage of radioactive IL-1β which bound specifically in the absence of competitor. The 100% value represents approximately 30,000 cpm.
As a further analysis of the receptor binding properties, nonradioactive proteins were used to complete with [^35 S]-labeled wild-type mature IL-1β for binding to EL4 cell receptors (FIG. 4). Competitive receptor binding was performed by incubating EL.4 thymoma cells at 37° C. in the presence of a constant level of [^35 S]-labeled mature IL-1β protein and increasing concentrations of non-radioactiveIL-1β competitor translation products. […] The amount of IL-1β protein synthesized by in vitro translation was determined by specific radioactivity using a radioactive IL-1β protein standard which was quantitated by radioimmune assay. […] The cells were solubilized in lysis buffer (50 mM sodium phosphate, pH 7; 10 mM ethylenediaminetetraacetic acid (EDTA); 0.1% TRITON™ X-100; 0.1% sarkosyl; 10 mM β-mercaptoethanol) before quantitation of bound radioactivity by liquid scintillation counting. […]

[3] = system: helper T-cells (D10.G4.1); experiment: Biological activity: [3H]thymidine incorporation by helper T-cells (D10.G4.1) with diluted translation mixtures; format: cell-based; conditions: FIG. 2
Method: FIG. 2. Biological activities of IL-1β proteins. Reticulocyte translation mixtures were incubated and assayed in the thymocyte co-stimulation assay as described previously (Jobling et al., 1988). The results are presented as [^3 H]thymidine incorporation (counts/minute)at various final dilutions of the translation mixtures.
The IL-1β proteins were synthesized by in vitro translation of SP6 or T7 messenger RNAs. In vitro protein synthesis was performed as described previously (Jobling et al., 1988; Jobling, S. A., and L. Gehrke [1987] Nature 325:622-625). The translational efficiency of all construct mRNAs was increased by replacing the untranslated leader sequence of the IL-1β mRNA with that of alfalfa mosaic virus RNA (Jobling et al., 1988; Jobling et al., 1987). All IL-1β protein translation products contain the amino-terminal methionine residue added during initiation of protein synthesis. The biological activity of the translation products was tested by quantitating [^3 H]thymidine incorporation by helper T-cells (D10.G4.1) (Kaye, Y., S. Porcelli, J. Tite, B. Jones, C. A. Janeway [1983] J. Exp. Med. 158:836-856) incubated in the presence of diluted translation reaction mixtures (FIG. 2).

[4] = biological target: T3, cell surface receptor of EL4 6.1 C10 murine thymoma cells (Mus musculus, UniProt P13504); experiment: SDS polyacrylamide gel analysis of specifically bound [35S]-labeled IL-1β proteins; format: binding; conditions: FIG. 3
T3 construct: endogenous in cells; host or cells: EL4 6.1 C10 murine thymoma cells
T3 sequence (P13504 20-576): T1 sequence (P13504 20-576)
Method: FIG. 3. Analysis of receptor binding. [^35 S]-labeled IL-1β proteins were incubated at 4° C. with murine EL.4 cells in the absence (-) or presence (+) or nonradioactive competitor recombinant IL-1β protein. Following incubation, the cells were sedimented through silicone oil as described previously (Jobling et al., 1988). The IL-1β proteins are identified at the top of the figure by numbers corresponding to amino acid positions. IL1(1-269) is proIL-1β, while IL1(117-269) corresponds to the mature IL-1β protein. The "native" and "Gly127 " notations at the bottom of the figure refer to the wild-type mature protein (Arg127) and the Arg127 →Gly127 mutein, respectively.
The receptor binding characteristics of the Arg127 →Gly127mutant protein were determined by Scatchard analysis and by sodium dodecyl sulfate (SDS) polyacrylamide gel analysis of specifically bound proteins (Dower et al., 1986; Jobling et al., 1988; Mosley et al., J. Biol. Chem. 1987). For the polyacrylamide gel analysis, IL-1β proteins were labeled with [^35 S]methionine during in vitro translation before cell surface receptor binding assays using EL4 6.1 C10 murine thymoma cells (Jobling et al., 1988; Mosley et al., Proc. Natl. Acad. Sci. USA, 1987; MacDonald, H. R., R. K. Lees, C. Bron [1985] J. Immunol. 135:3944) (FIG. 3). […]

[5] = literature (Huang et al. 1987; Jobling et al. 1988); cited from earlier work
[6] = biological target: T1, IL-1 receptor on EL.4 cells; conditions: Jobling et al., 1988; cited from earlier work

With “Arg127 →Gly127 mutant: human mature IL-1β mutein made by site-directed mutagenesis of the IL-1β cDNA converting Arg127 to Gly127” the “Relative binding (receptor binding affinity in relation to mature wild-type IL-1β = 100%)” value ([1]; EL.4 cells, 4° C.) was 107%, the “receptor affinity compared with wild-type IL-1β (in words)” value ([1]; listed as Arg127 →Gly127 mutant form of IL-1β) was “equal affinity” and the “receptor affinity compared with wild-type IL-1β (in words)” value ([1]; listed as Arg127 →Gly127 mutant protein) was “indistinguishable from that of the wild-type IL-1β protein”. For the same substance, the “competition with [35S]-labeled wild-type mature IL-1β for binding (in words)” value [2] was “reproducibly competed more effectively than the wild-type mature IL-1β”, the “biological activity (half maximal), fold less than wild-type mature IL-1β” value [3] was “at least 100 fold” and the “biological activity relative to that induced by mature IL-1β” value [3] was 1%. For the same substance, the “half maximal biological activity compared with proIL-1β” value [3] was “greater than that of proIL-1β” and the “receptor binding properties by intensity of bound protein bands, compared with native mature IL-1β” value [4] was “similar”.
In the case of “proIL-1β: human IL-1β 31,000 dalton precursor protein, 269 amino acids”, the “biological activity (in words)” value [5] is listed as “relatively low, but distinct biological activity”, the “competition with [35S]-labeled wild-type mature IL-1β for binding (in words)” value [2] is listed as “competed minimally” and the “affinity for receptor, fold less than that of mature IL-1β” value [6] is listed as 30 fold.
